According to US20140087995A1 (published 2014):
Read-outs that look alike come from different tables or passages of the source. Numbered stars: 1 amine (or outer) side, 2 acyl side, 3 side chain; on linkers, the order of the positions; unused ones are H or OH. Bridge positions count the residues as written; N and C are the ends. Square brackets hold non-standard residues; d marks the D form. Side chains are listed from the residue outwards. Ends that are not written are not given here. * marks the point of attachment. C20 diacid = O=C(O)CCCCCCCCCCCCCCCCCCC(=O)*; γGlu = O=C(O)[C@H](CCC(=O)[*:2])N[*:1]

T1: human amylin receptor (amylin 3(a) receptor: human calcitonin receptor with RAMP-3) (human, UniProt P30988 25-474; O60896 24-148, limits assumed)
T1 sequence (looked up) 1: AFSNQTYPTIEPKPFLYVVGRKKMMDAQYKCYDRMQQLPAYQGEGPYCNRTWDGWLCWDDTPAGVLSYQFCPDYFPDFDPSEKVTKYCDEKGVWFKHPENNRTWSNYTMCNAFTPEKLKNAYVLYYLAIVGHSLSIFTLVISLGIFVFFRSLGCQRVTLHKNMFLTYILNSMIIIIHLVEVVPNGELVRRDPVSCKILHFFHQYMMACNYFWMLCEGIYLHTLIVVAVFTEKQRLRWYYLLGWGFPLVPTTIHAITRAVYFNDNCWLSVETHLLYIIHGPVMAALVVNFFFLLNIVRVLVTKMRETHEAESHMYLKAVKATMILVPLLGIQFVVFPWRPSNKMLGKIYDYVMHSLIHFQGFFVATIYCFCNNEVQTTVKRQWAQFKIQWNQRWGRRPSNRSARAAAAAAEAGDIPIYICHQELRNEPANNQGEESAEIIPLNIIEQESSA
T1 sequence (looked up) 2: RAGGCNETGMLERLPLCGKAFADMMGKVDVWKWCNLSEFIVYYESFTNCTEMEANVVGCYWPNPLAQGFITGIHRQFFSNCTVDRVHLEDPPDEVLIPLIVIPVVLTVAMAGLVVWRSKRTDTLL

T2: human calcitonin receptor (human, UniProt P30988 25-474)
T2 sequence (looked up): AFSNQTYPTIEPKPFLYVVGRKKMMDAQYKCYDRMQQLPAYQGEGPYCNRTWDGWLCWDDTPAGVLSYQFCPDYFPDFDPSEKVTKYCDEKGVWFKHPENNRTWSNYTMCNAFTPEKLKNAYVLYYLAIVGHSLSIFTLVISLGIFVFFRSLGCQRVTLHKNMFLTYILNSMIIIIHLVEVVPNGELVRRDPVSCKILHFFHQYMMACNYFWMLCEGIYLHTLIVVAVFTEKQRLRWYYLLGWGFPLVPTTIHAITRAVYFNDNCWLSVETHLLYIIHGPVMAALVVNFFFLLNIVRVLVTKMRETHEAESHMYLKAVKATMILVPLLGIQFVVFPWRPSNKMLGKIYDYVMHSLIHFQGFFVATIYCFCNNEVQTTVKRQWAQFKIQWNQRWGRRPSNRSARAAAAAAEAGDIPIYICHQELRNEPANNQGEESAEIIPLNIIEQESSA

T3: human calcitonin receptor (human, UniProt P30988 25-474)
T3 sequence (looked up): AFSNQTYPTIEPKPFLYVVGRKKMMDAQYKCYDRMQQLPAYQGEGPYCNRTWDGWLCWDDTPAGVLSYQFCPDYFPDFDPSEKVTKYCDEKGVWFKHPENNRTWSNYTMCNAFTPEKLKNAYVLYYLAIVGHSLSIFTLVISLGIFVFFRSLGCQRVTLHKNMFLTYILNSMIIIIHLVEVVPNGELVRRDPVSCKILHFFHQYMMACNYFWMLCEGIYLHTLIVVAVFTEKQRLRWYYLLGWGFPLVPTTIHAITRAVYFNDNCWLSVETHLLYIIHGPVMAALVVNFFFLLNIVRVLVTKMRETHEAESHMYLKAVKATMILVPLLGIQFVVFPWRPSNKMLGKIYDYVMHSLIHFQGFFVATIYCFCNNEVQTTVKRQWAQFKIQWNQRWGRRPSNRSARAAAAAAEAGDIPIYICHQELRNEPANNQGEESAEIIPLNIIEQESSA

T4: human amylin receptor (amylin 3(a) receptor: human calcitonin receptor with RAMP-3) (human, UniProt P30988 25-474; O60896 24-148, limits assumed)
T4 construct: whole, on cells; Whole cells in the luciferase assay (Assay II a); also called hAmylin-R; hAmylinR
T4 sequence (looked up) 1: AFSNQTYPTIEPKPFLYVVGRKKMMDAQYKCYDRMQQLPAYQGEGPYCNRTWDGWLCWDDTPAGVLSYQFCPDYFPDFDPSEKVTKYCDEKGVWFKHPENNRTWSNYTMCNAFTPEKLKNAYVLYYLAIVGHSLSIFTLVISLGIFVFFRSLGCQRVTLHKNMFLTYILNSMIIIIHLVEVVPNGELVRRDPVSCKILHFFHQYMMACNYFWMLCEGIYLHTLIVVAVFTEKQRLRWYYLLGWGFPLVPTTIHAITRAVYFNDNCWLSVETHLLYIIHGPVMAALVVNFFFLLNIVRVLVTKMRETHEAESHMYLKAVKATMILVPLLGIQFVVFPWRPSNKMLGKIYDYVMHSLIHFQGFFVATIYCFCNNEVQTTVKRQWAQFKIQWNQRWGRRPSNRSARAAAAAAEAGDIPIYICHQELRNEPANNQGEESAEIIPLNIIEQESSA
T4 sequence (looked up) 2: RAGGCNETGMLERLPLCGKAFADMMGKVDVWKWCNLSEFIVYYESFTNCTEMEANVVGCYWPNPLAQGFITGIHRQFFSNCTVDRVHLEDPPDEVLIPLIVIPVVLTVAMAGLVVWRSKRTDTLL

T5: human calcitonin receptor (human, UniProt P30988 25-474)
T5 construct: whole, on cells; also called hCTR; hCT
T5 sequence (looked up): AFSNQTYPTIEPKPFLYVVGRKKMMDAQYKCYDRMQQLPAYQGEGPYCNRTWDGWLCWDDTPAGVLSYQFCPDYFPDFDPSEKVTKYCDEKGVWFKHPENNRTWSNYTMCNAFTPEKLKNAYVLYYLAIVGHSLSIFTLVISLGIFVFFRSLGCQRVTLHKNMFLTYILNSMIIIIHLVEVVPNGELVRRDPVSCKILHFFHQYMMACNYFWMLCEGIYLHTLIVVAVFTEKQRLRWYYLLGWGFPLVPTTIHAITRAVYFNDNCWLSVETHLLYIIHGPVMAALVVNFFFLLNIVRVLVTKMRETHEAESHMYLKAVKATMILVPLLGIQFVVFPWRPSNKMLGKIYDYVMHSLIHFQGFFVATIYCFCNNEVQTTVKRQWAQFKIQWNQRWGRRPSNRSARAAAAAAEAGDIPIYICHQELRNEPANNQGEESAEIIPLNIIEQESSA


Tests used:
[1] = molecular target: T1, human amylin receptor (amylin 3(a) …); experiment: cell-based or functional assay
[2] = molecular target: T2, human calcitonin receptor; experiment: cell-based or functional assay
[3] = molecular target: T3, human calcitonin receptor; experiment: cell-based or functional assay; remark: listed apart in the source
[4] = molecular target: T4, human amylin receptor (amylin 3(a) …); experiment: SPA competition binding on membranes of BHK cells with human calcitonin receptor + RAMP-3; displacement of 125I-rat amylin (Assay V)
In short: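 Cell membranes were prepared by homogenisation in Na-HEPES/EDTA buffer, pH 7.4, and stored at −80° C. They were then coupled to SPA beads at 35 ng/μL final and exposed to compounds in assay buffer containing CaCl2, MgCl₂, OA and Tween20. After 120 min at 25° C, plates were counted and IC₅₀ derived.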

[5] = molecular target: T5, human calcitonin receptor; experiment: SPA competition against 125I-calcitonin, membranes of BHK cells with human calcitonin receptor (Assay VII)
In short: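 BHK hCTR membranes 35 ng/μL + SPA beads 0.05 mg/well; buffer 50 mM Hepes pH 7.4, 1 mM CaCl2, 5 mM MgCl₂, 0.1% OA, 0.02% Tween20. 120 min, 25° C., shaking. Scintillation count; IC50 by one-site binding competition.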

Binder | Ratio hCT/hAmylin funct. [1] | hAmylin-R funct. EC50 (pM) [1] [pM] | hCTR funct. EC50 (pM) [2] [pM] | also measured
K([γGlu-γGlu-C20 diacid])CNTATCATQRLADFLRHSSPNFGAIPSSTNVGPETY-NH2 (disulfide 2-7 (inferred)) | 5.3 | 159 | 843 | 
K([γGlu-γGlu-C20 diacid])CNTATCATQRLANFLRHSSPNFGAIPSSTPVGPRTY-NH2 (disulfide 2-7 (inferred)) |  | 333 | 8660 | 
K([γGlu-C20 diacid])CNTATCATQRLAEFLRHSSPNFGAIPSSTNVGSHTY-NH2 (disulfide 2-7 (inferred)) |  | 425 | 5580 | 
K([γGlu-γGlu-C20 diacid])CNTATCATQRLA[dD]FLRHSSPNFGAIPSSTNVGSRTY-NH2 (disulfide 2-7 (inferred)) |  | 383 | 100000 | 
K([γGlu-γGlu-C20 diacid])CNTATCATQRLAEFLRHSSPNFGAILSSTPVGPETY-NH2 (disulfide 2-7 (inferred)) | 5.8 | 222 | 1280 | 
K([γGlu-γGlu-C20 diacid])CNTATCATQRLAEFLRHSSPNFGAIPSSTNVGPNTF-NH2 (disulfide 2-7 (inferred)) | 9.9 | 216 | 2140 | 
K([γGlu-γGlu-C20 diacid])CNTATCATQRLAEFLRHSSPNFGAIPSSTNVGPETP-NH2 (disulfide 2-7 (inferred)) | 0.8 | 132 | 102 | 
K([γGlu-γGlu-C20 diacid])CNTATCATQRLASFLRHSSPNFGAIPSSTNVGPETY-NH2 (disulfide 2-7 (inferred), also called compound 120) | 8.1 | 109 | 887 | 
K([γGlu-γGlu-C20 diacid])CNTATCATQRLADFLRHSSPNFGAIPSSTNVGPRTY-NH2 (disulfide 2-7 (inferred), also called compound 130) |  | 162 | 7280 | 
K([γGlu-γGlu-C20 diacid])CNTATCATQRLAEFLRHSSNNPGAILSSTNVGPETY-NH2 (disulfide 2-7 (inferred)) |  | 5170 | 89600 | 
K([γGlu-C20 diacid])CNTATCATQRLAEFLRHSSPNFGAIPSSTNVGPHTY-NH2 (disulfide 2-7 (inferred)) |  | 101 | 1450 | 
K([γGlu-γGlu-C20 diacid])CNTATCATQRLAEFLRHSSPNFGAIPSSTNVGPHTY-NH2 (disulfide 2-7 (inferred)) |  | 172 | 2830 | 
K([γGlu-C20 diacid])CNTATCATQRLADFLRHSSPNFGAIPSSTNVGPRTY-NH2 (disulfide 2-7 (inferred)) |  | 146 | 3640 | 
K([γGlu-γGlu-C20 diacid])CNTATCATQRLAEFLRHSSPNFGAIPSSTNVGSRTY-NH2 (disulfide 2-7; N-terminus assumed; SMILES CC[C@H](C)[C@H](NC(=O)[C@H](C)NC(=O)CNC(=O)[C@H](Cc1ccccc1)NC(=O)[C@H](CC(N)=O)NC(=O)[C@@H]1CCCN1C(=O)[C@H](CO)NC(=O)[C@H](CO)NC(=O)[C@H](Cc1c[nH]cn1)NC(=O)[C@H](CCCNC(=N)N)NC(=O)[C@H](CC(C)C)NC(=O)[C@H](Cc1ccccc1)NC(=O)[C@H](CCC(=O)O)NC(=O)[C@H](C)NC(=O)[C@H](CC(C)C)NC(=O)[C@H](CCCNC(=N)N)NC(=O)[C@H](CCC(N)=O)NC(=O)[C@@H](NC(=O)[C@H](C)NC(=O)[C@@H]1CSSC[C@H](NC(=O)[C@@H](N)CCCCNC(=O)CC[C@H](NC(=O)CC[C@H](NC(=O)CCCCCCCCCCCCCCCCCCC(=O)O)C(=O)O)C(=O)O)C(=O)N[C@@H](CC(N)=O)C(=O)N[C@@H]([C@@H](C)O)C(=O)N[C@@H](C)C(=O)N[C@@H]([C@@H](C)O)C(=O)N1)[C@@H](C)O)C(=O)N1CCC[C@H]1C(=O)N[C@@H](CO)C(=O)N[C@@H](CO)C(=O)N[C@H](C(=O)N[C@@H](CC(N)=O)C(=O)N[C@H](C(=O)NCC(=O)N[C@@H](CO)C(=O)N[C@@H](CCCNC(=N)N)C(=O)N[C@H](C(=O)N[C@@H](Cc1ccc(O)cc1)C(N)=O)[C@@H](C)O)C(C)C)[C@@H](C)O, also called compound 89) |  |  |  | Ratio hCT/hAmylin funct. [3]: 27.8 ratio; hCTR funct. EC50 (pM) [3]: 11200 pM; IC50 [4]: 1.16 nM
K([γGlu-γGlu-C20 diacid])CNTATCATQRLA[dD]FLRHSSPNFGAIPSSTNVGSRTY-NH2 (disulfide 2-7; N-terminus assumed; SMILES CC[C@H](C)[C@H](NC(=O)[C@H](C)NC(=O)CNC(=O)[C@H](Cc1ccccc1)NC(=O)[C@H](CC(N)=O)NC(=O)[C@@H]1CCCN1C(=O)[C@H](CO)NC(=O)[C@H](CO)NC(=O)[C@H](Cc1c[nH]cn1)NC(=O)[C@H](CCCNC(=N)N)NC(=O)[C@H](CC(C)C)NC(=O)[C@H](Cc1ccccc1)NC(=O)[C@@H](CC(=O)O)NC(=O)[C@H](C)NC(=O)[C@H](CC(C)C)NC(=O)[C@H](CCCNC(=N)N)NC(=O)[C@H](CCC(N)=O)NC(=O)[C@@H](NC(=O)[C@H](C)NC(=O)[C@@H]1CSSC[C@H](NC(=O)[C@@H](N)CCCCNC(=O)CC[C@H](NC(=O)CC[C@H](NC(=O)CCCCCCCCCCCCCCCCCCC(=O)O)C(=O)O)C(=O)O)C(=O)N[C@@H](CC(N)=O)C(=O)N[C@@H]([C@@H](C)O)C(=O)N[C@@H](C)C(=O)N[C@@H]([C@@H](C)O)C(=O)N1)[C@@H](C)O)C(=O)N1CCC[C@H]1C(=O)N[C@@H](CO)C(=O)N[C@@H](CO)C(=O)N[C@H](C(=O)N[C@@H](CC(N)=O)C(=O)N[C@H](C(=O)NCC(=O)N[C@@H](CO)C(=O)N[C@@H](CCCNC(=N)N)C(=O)N[C@H](C(=O)N[C@@H](Cc1ccc(O)cc1)C(N)=O)[C@@H](C)O)C(C)C)[C@@H](C)O) |  |  |  | IC50 [5]: 112 nM
K([γGlu-C20 diacid])CNTATCATQRLADFLRHSSPNFGAIPSSTNVGPETY-NH2 (disulfide 2-7 (inferred)) | 3.9 | 288 | 1120 | 
